One test has as its system 4T1 cells. The experiment in a line: Repeated dosing of Nani-P2 and cyclophosphamide in 4T1 tumor-bearing mice. The test is classed as in vivo, mouse. The settings on record: cyclophosphamide 80 mg/kg IP weekly from day 10. As for the experimental part: Four groups of 10 BALB/c mice were implanted with 1×10^4 4 T1 cells SC into the mammary fat pad. Treatment was initiated when tumor diameters reached 4-5 mm, on day 10. Control mice were injected IV with PBS at 3 days intervals, while alternating treatment mice received 3 doses of drug every 3 days in rotating 10 day cycles. Tumor burden (tumor size mm^3) was calculated using a standard formula. CY (cyclophosphamide alone) mice were injected IP weekly with 80 mg/kg per mouse beginning on day 10. Cy/Nani-P2 (cyclophosphamide first followed by Nani-P2) mice were first injected IP with cyclophosphamide (80 mg/kg) at 3 days intervals for three doses starting at day 10 and then injected IV with Nani-P2 (40 ng) at 3 days intervals for three doses in rotation. The cycle of 3 doses of CY followed by 3 doses of Nani-P2 was repeated until day 50. Nani-P2/CY (Nani-P2 first followed by cyclophosphamide) mice were first injected IV with Nani-P2 (40 ng) at 3 day intervals for 3 doses starting on day 10 and then injected i.p. with cyclophosphamide at 3 day intervals in rotation. The cycle of 3 doses of Nani-P2 followed by 3 doses of CY was repeated until day 50.

In another test the test system is 4T1 breast tumor. The experiment in a line: 4T1 primary breast tumor growth in BALB/c mice. The test is classed as in vivo, mouse. Conditions: 400 ng partially-purified, SC, days 0, 7, 14, 21 (Nani-P3 also 2 μg); from day 15, p<0.05. As for the experimental part: BALB/c mice were injected (SC) with 1×10^4 4 T1, 1×10^5 TS/A or 2×10^5 SM1 cells, respectively, in the left mammary pad on day 0. […] The control group received PBS injection. […] Tumor burden (tumor volume) was measured and recorded three times weekly. Animals were sacrificed when tumors reached a volume of 15 mm in diameter and the tumors harvested and weighed.
The therapeutic effect of systemic administration of synthetic, Tat-derived compositions in murine models of breast cancer was investigated. […]

“Also recorded” adds a separate entry of the source.

For `O=P1(N(CCCl)CCCl)NCCCO1` (stereo not drawn) [cyclophosphamide, reference compound], the “mice dead by day 42” value in the test on 4T1 cells is 10/10.

B1: Nani-P1: Tat derivative polypeptide SEQ ID NO:2; TF HIV-1, cysteine-rich HIV-1, C-terminal HIV-1 (protein)
chain: MEPVDANLEAWKHAGSQPRKTACTTCYCKKCCFHCQVCFTRKGLGISYGRKKRRQRRRAPQDSQTHQASLSKQPASQSRGDPTGPTESKKKVERETETDPFD
modifications: Tat derivative polypeptide
For the molecule B1, the “4T1 tumor burden versus PBS control” value in the test with 4T1 breast tumor is “significantly reduced tumor burden; also recorded: significant”.

B2: Nani-P3: Tat derivative polypeptide SEQ ID NO:4; TF SIVsmm, cysteine-rich murine βdefensin, C-terminal HIV-1 (protein)
chain: METPLKEQENSLESCREHSSSISEVDVPTPVSCLRKGGRCWNRCIGNTRQIGSCGVPFLKCCKRKPFTRKGLGISYGRKKRRQRRRAPQDSQTHQASLSKQPASQSRGDPTGPTESKKKVERETETDPFD
modifications: Tat derivative polypeptide
On to B2, for which the “4T1 tumor burden versus PBS control” value in the test with 4T1 breast tumor was “less effective at suppressing 4T1 primary tumor growth; also recorded: no difference”.

(Values after patent publication US10159707B2, “Treatment of cancers with immunostimulatory HIV Tat derivative polypeptides” (PIN Pharma, Inc., priority 2013, dated 2018).)
